Test results from US20150119341A1.
[ ]: non-standard residue; d: D form. Nle = CCCC[C@H](N)C(=O)O

Experiments:
[1] = target: recombinant human melanocortin-1 receptor (hMCR-1a) in membrane homogenates of HEK-293 cells (human) (UniProt Q01726); assay: competitive inhibition of [I125]-NDP-alpha-MSH, hMCR-1 HEK-293 membranes
[2] = target: recombinant human melanocortin-4 receptor (hMCR-4) in membrane homogenates of HEK-293 cells (human) (UniProt P32245); assay: competitive inhibition of [I125]-NDP-alpha-MSH, hMCR-4 HEK-293 membranes
Chain of recombinant human melanocortin-4 receptor (hMCR-4) in membrane homogenates of HEK-293 cells (human) (P32245 whole entry): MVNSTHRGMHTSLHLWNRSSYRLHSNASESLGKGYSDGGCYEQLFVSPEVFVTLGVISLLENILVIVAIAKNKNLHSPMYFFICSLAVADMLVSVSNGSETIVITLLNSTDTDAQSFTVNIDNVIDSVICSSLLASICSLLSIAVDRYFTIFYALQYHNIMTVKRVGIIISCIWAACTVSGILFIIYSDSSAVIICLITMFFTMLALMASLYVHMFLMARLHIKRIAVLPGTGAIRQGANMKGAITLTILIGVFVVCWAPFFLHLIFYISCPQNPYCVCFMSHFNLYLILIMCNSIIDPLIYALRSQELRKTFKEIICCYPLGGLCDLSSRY

Chain of recombinant human melanocortin-1 receptor (hMCR-1a) in membrane homogenates of HEK-293 cells (human) (Q01726 whole entry): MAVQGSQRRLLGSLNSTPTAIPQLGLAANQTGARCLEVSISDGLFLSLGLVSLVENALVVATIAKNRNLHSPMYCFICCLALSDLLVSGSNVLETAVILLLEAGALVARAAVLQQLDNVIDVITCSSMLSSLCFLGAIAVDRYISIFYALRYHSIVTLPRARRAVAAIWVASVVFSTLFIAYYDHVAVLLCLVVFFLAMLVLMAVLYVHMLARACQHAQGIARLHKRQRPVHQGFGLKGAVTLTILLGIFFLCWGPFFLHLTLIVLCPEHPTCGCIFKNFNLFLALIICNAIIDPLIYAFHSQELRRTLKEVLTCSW

Substance	Ki [1] [µM]	Ki [2] [µM]
Ac-[Nle]AH[dF]R[dP][dW]-NH2	0.02	10
Ac-[Nle][dF]RAW-NH2	1.29	7.12
